Target: the molecule itself

B1: PfPKG (protein)
chain: MEEDDNLKKGNERNKKKAIFSNDDFTGEDSLMEDHLELREKLSEDIDMIKTSLKNNLVCSTLNDNEILTLSNYMQFFVFKSGNLVIKQGEKGSYFFIINSGKFDVYVNDKKVKTMGKGSSFGEAALIHNTQRSATIIAETDGTLWGVQRSTFRATLKQLSNRNFNENRTFIDSVSVFDMLTEAQKNMITNACVIQNFKSGETIVKQGDYGDVLYILKEGKATVYINDEEIRVLEKGSYFGERALLYDEPRSATIIAKEPTACASICRKLLNIVLGNLQVVLFRNIMTEALQQSEIFKQFSGDQLNDLADTAIVRDYPANYNILHKDKVKSVKYIIVLEGKVELFLDDTSIGILSRGMSFGDQYVLNQKQPFKHTIKSLEVCKIALITETCLADCLGNNNIDASIDYNNKKSIIKKMYIFRYLTDKQCNLLIEAFRTTRYEEGDYIIQEGEVGSRFYIIKNGEVEIVKNKKRLRTLGKNDYFGERALLYDEPRTASVISKVNNVECWFVDKSVFLQIIQGPMLAHLEERIKMQDTKVEMDELETERIIGRGTFGTVKLVHHKPTKIRYALKCVSKRSIINLNQQNNIKLEREITAENDHPFIIRLVRTFKDSKYFYFLTELVTGGELYDAIRKLGLLSKSQAQFYLGSIILAIEYLHERNIVYRDLKPENILLDKQGYVKLIDFGCAKKVQGRAYTLVGTPHYMAPEVILGKGYGCTVDIWALGICLYEFICGPLPFGNDEEDQLEIFRDILTGQLTFPDYVTDTDSINLMKRLLCRLPQGRIGCSINGFKDIKDHPFFSNFNWDKLAGRLLDPPLVSKSETYAEDIDIKQIEEEDAEDDEEPLNDEDNWDIDF
Question: How did the Kd turn out when B1 was run?
Answer: ~32 µM

— paper PMC6628679 (2019)
